Where “and” joins values, the source holds several entries; their conditions need not be identical. Equal values may be shown once. Read-outs that look alike come from different tables or passages of the source.
Columns and labels:
[1] = target: TbMP18-FL (T. brucei (strain Lister 427)); assay: SEC
[2] = target: TbMP24-OB (T. brucei (strain Lister 427)); assay: SEC
[3] = target: TbMP42-FL (T. brucei (strain Lister 427)); assay: SEC
[4] = target: TbMP18-FL (T. brucei (strain Lister 427))
[5] = target: TbMP81-OB (T. brucei (strain Lister 427)); assay: SEC
[6] = target: TbMP81-FL (T. brucei (strain Lister 427)); assay: SEC
[7] = target: TbMP42-OB (T. brucei (strain Lister 427)); assay: SEC
[8] = target: TbMP18-FL (T. brucei (strain Lister 427)); assay: SEC; remark: listed apart in the source

TbMP24-OB (domain or fragment)
stoichiometry N (TbMP24-OB:TbMP18-FL (molar ratio)) [1]: 2
stoichiometry N [2]: 3

TbMP42-FL (natural protein)
stoichiometry N [3]: 3

TbMP18-FL (natural protein)
stoichiometry N [1]: 4

TbMP24-FL (natural protein)
stoichiometry N (TbMP24-FL:TbMP18-FL (molar ratio)) [1]: 2 and 1.5
stoichiometry N (TbMP24-FL:TbMP18-FL (molar ratio)) [4]: 1.1

TbMP81-OB (domain or fragment)
stoichiometry N [5]: 2

TbMP81-FL (natural protein)
stoichiometry N [6]: 2

TbMP42-OB (domain or fragment)
stoichiometry N [7]: 3

B1: TbMP63-OB (domain or fragment)
chain: SAIGASWAETELIPHAQCVSNITIVGRVLDVSQASENVSHVTVFVEGERSGEEETLTLCCFGEVSQKIRGTLKRNATIFASGTLRLHPVYEASNNKYYVSPVVHVSMPTGTLAVIT
stoichiometry N (TbMP63-OB:TbMP18-FL (molar ratio)) [8]: 1 and 1.5
stoichiometry N (TbMP63-OB:TbMP18-FL (molar ratio)) [4]: 0.67
